# Reference: patent US20050214219A1, “24p3 receptors and uses thereof” (priority 2003, published 2005)
# Where a name gives a salt, the structure may show the parent alone.
# B1: 24p3: recombinant mouse lipocalin 24p3, ligand of 24p3R; used 32P-labeled or fluorescently derivatized (protein)
# chain: QDSTQNLIPAPSLLTVPLQPDFRSDQFRGRWYVVGLAGNAVQKKTEGSFTMYSTIYELQENNSYNVTSILVRDQDQGCRYWIRTFVPSSRAGQFTLGNMHRYPQVQSYNVQVATTDYNQFAMVFFRKTSENKQYFKITLYGRTKELSPELKERFTRFAKSLGLKDDNIIFSVPTDQCIDN
# B2: holo-24p3: bacterially derived iron-loaded 24p3 (protein)
# chain: B1 chain
# B3: apo-24p3: bacterially derived iron-lacking 24p3 (protein)
# chain: B1 chain
# Experiments:
# [1] = test system: HeLa/24p3R-L, HeLa/24p3R-S, or HeLa/X7 cells; test: intracellular iron monitored by expression of iron-regulated genes ferritin and transferrin receptor 1; format: cell-based
# Description: Experiments were performed to determine whether 24p3R expression would confer on cells the ability to deliver iron in a 24p3-dependent fashion. In these experiments, as well as those described below, three preparations of 24p3 were used: bacterially derived iron-loaded 24p3 (holo-24p3), bacterially derived iron-lacking 24p3 (apo-24p3), and conditioned medium (CM) from cytokine-deprived FL5.12 cells, which contains 24p3 (FL5.12-24p3). The three preparations of 24p3 were added to HeLa/24p3R-L, HeLa/24p3R-S, or HeLa/X7 cells, and, as a control, iron-containing transferrin (holo-transferrin) was added in parallel samples. To monitor intracellular iron concentration, the expression of two iron-regulated genes, ferritin and transferrin receptor 1 were examined.
# 24p3-mediated apoptosis = test: ability of holo-transferrin to block 24p3-mediated apoptosis; format: cell-based
# Excerpt: If the basis of 24p3-mediated apoptosis is in fact decreased intracellular iron concentration, then apoptosis should be prevented by iron delivery. To test this prediction, the ability of holo-transferrin to block 24p3-mediated apoptosis was examined.
# HIFIα and Nip3 = test: expression of HIFIα and Nip3 (response to decreased intracellular iron); format: cell-based
# Description: It is well established that iron chelators can induce apoptosis. […] To examine this possibility, the expression of two genes, HIFIα and Nip3, was analyzed. The two genes are unregulated in response to decreased intracellular iron concentration. As a control, cells were treated with the bacterial siderophore desferrioxamine (DFO), an iron chelator, and analyzed in parallel.
# [2] = test system: calcein-loaded HeLa cells; test: intracellular iron in living cells with iron-sensing dye calcein; format: cell-based; conditions: for calcein fluorescence (inverse to intracellular iron level): calcein-loaded HeLa cells expressing 24p3 receptor, FIG. 3
# Description: In this particular example, intracellular iron levels were measured in living cells using the iron-sensing dye calcein. Calcein is a fluorescent, cell permeable dye. Because its fluorescence is quenched upon iron binding, calcein can be used to measure free (also called labile or chelatable) iron in living cells.
# 24p3R [3] = test: ligand-cell binding of 32P-labeled 24p3 to HeLa cells ectopically expressing 24p3R; design: species or system murine
# Chain of 24p3R (as listed by the source): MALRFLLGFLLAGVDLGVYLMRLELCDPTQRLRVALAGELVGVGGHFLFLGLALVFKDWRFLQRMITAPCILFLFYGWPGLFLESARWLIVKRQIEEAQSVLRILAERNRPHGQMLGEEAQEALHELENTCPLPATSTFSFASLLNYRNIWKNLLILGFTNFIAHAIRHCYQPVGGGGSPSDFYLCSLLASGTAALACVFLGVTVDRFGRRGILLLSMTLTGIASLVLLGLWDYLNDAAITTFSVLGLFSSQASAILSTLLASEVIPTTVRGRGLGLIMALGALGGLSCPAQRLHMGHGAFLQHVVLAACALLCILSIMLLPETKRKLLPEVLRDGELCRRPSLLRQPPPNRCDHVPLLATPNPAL
# Excerpt: HeLa cells expressed only low levels of 24p3R. To perform functional experiments HeLa cell lines were derived that stably express recombinant N-terminal epitope-tagged derivatives of 24p3R-L and 24p3R-S (HeLa/24p3R-L and HeLa/24p3R-S) and, as a control, the empty expression vector (HeLa/X7). Immunoblot analysis confirmed expression of 24p3R in HeLa/24p3R-L and HeLa/24p3R-S cells.
# To determine whether the ectopically expressed 24p3R was able to bind 24p3, a series of ligand-cell binding experiments were performed. […] Binding of ^32P-labeled 24p3 to HeLa/24p3R-L and HeLa/24p3R-S was saturable and blocked by the addition of an excess of unlabeled 24p3. […] Thus, ectopically expressed 24p3R can bind to 24p3.
# 24p3R [4] = test: Internalization assay of 32P-24p3; format: cell-based, murine
# Description: HeLa cells constitutively expressing 24p3R were treated with ^32P-24p3 and at various time points cells were washed three times with PBS and incubated for 15 minutes in proteinase K, trypsin, and EDTA solution to remove the extracellular portion of the receptor. The dislodged cells were then collected and counted.
# 24p3 and other lipocalins are internalized following binding to their cell surface receptor. […] Thus, cells ectopically expressing 24p3R can be used as reagents for examining the function of 24p3 and 24p3R as well as in assays to identify compounds that affect expression or activity of a 24p3R or a 24p3 (e.g., 24p3 or NGAL).
# [5] = test system: 32D cells or 32D/BCR-ABL^p190 cells; test: cellular ligand-uptake of fluorescently derivatized 24p3 by fluorescence microscopy; format: cell-based, mouse
# Description: A cellular ligand-uptake experiment was performed in which 24p3 was fluorescently derivatized, added to 32D cells or 32D/BCR-ABL^p190 cells, and 24p3 internalization analyzed by fluorescence microscopy.
# [6] = test system: HeLa/24p3R-L, HeLa/24p3R-S, or HeLa/X7 cells; test: colorimetric determination of intracellular free (non-haem) iron concentration; format: cell-based
# Description: Colorimetric determination of intracellular non-haem iron concentration was measured as described by Leardi et al., (1998, Br. J. Haematol., 102:746-752) with modifications. Briefly, cells were washed twice with ice-cold PBS and then lysed with lysis buffer (1% TRITON™-X100, 10% glycerol. 25 mM HEPES, pH 7.4, in PBS) and incubated with 0.3 N HCl. The proteins in the lysates were precipitated with 10% TCA (trichloroacetic acid) and centrifuged at 1200×g for 15 minutes. The lysates were then mixed with iron chromogen, FERROZINE® (Sigma) in iron buffer reagent (1.5% hydroxylamine HCl in acetate buffer, pH 4.5) and the absorbance was measured spectrophotometrically at 560 nm. The non-heme iron concentration was measured by interpolating the absorbance of each sample using preset iron standards (Sigma) and expressed as mg/dL.
# To confirm the results disclosed above, a […] assay that directly measures free iron concentration was employed.
# [7] = test system: HeLa/24p3R-L, HeLa/24p3R-S, or HeLa/X7 cells; test: 24p3-dependent apoptosis by annexin V-FITC staining; format: cell-based; conditions: for apoptosis (annexin V-FITC staining; confirmed by PARP and caspase 3 cleavage): HeLa/24p3R-L and HeLa/24p3R-S cells
# Description: To examine the ability of 24p3R to mediate 24p3-dependent apoptosis, different preparations of 24p3 were added to the three HeLa cell lines described above and apoptosis was analyzed by annexin V-FITC staining. […] Apoptosis was confirmed by analyzing proteolytic cleavage of PARP (poly(ADP-ribose)polymerase) and caspase 3.
# [8] = HeLa/24p3R-L and HeLa/24p3R-S cells
molecule,measurement,setting,value
"holo-transferrin: iron-containing transferrin, used as control [reference compound]",intracellular iron concentration (ferritin / transferrin receptor 1 expression),[1]; all three HeLa cell lines,increased iron concentration
same,levels of ferritin,[1]; all three HeLa cell lines,increased levels of ferritin
same,levels of transferrin receptor 1,[1]; all three HeLa cell lines,decreased levels of transferrin receptor 1
same,effect on apoptosis by 24p3,24p3-mediated apoptosis,blocked apoptosis by 24p3
same,effect on apoptosis induced by other agents,24p3-mediated apoptosis; apoptosis induced by etoposide or staurosporine,had no effect
"CC(=O)N(O)CCCCCNC(=O)CCC(=O)N(O)CCCCCNC(=O)CCC(=O)N(O)CCCCCN [DFO, deferoxamine mesylate, reference compound]",expression of HIFIα and Nip3,HIFIα and Nip3; all three HeLa cell lines,induced expression of HIFIα and Nip3
same,calcein fluorescence (inverse to intracellular iron level),[2],large increase in fluorescence emission
same,intracellular iron levels (calcein),[2]; control HeLa cells (HeLa/X7),altered iron levels
B1,binding of 32P-labeled 24p3 to cells,24p3R [3]; [8],bound to HeLa/24p3R-L and HeLa/24p3R-S cells
same,binding of 32P-labeled 24p3 to cells,24p3R [3]; HeLa/X7 cells (empty vector control),not to HeLa/X7 cells
same,internalization of 32P-labeled 24p3,24p3R [4]; [8],internalized by HeLa/24p3R-L and HeLa/24p3R-S cells
same,internalization of 32P-labeled 24p3,24p3R [4]; HeLa/X7 cells,not by HeLa/X7 cells
same,internalization of fluorescently labeled 24p3,[5]; 32D cells,internalized
same,internalization of fluorescently labeled 24p3,[5]; 32D/BCR-ABL^p190 cells,not 32D/BCR-ABL^p190 cells
B2,intracellular iron concentration (ferritin / transferrin receptor 1 expression),[1]; [8],increased intracellular iron concentration
same,intracellular iron concentration (ferritin / transferrin receptor 1 expression),[1]; HeLa/X7 cells,not in HeLa/X7 cells
same,free iron concentration (colorimetric assay),[6]; [8],increased intracellular iron
same,free iron concentration (colorimetric assay),[6]; HeLa/X7 cells,not in HeLa/X7 cells
same,apoptosis (annexin V-FITC staining; confirmed by PARP and caspase 3 cleavage),[7],failed to induce apoptosis
same,calcein fluorescence (inverse to intracellular iron level),[2],decrease in fluorescence intensity
B3,intracellular iron concentration (ferritin / transferrin receptor 1 expression),[1]; all three HeLa cell lines,did not increase intracellular iron
same,free iron concentration (colorimetric assay),[6]; [8],substantially reduced free iron concentration
same,apoptosis (annexin V-FITC staining; confirmed by PARP and caspase 3 cleavage),[7],induced apoptosis
same,apoptosis (annexin V-FITC staining),[7]; HeLa/X7 cells,not in HeLa/X7 cells
same,HIFIα levels and Nip3 transcription,HIFIα and Nip3; HeLa/24p3R-S cells,increased HIFα levels and Nip3 transcription
same,calcein fluorescence (inverse to intracellular iron level),[2],large increase in fluorescence emission
